{
  "source": "paper PMC9622860",
  "about": "“Structural and molecular determinants of Candida glabrata metacaspase maturation and activation by calcium” (Communications Biology, 2022)",
  "binders": {"B1": {"name": "p10 domain of mature CgMCA-I (fragment after the cleavage at R307) (domain or fragment, Candida glabrata, UniProt Q6FPX9 308-392, looked up)", "chain": "QIKFSPADVIMLSGSKDNQTSADTFADGQNIGAMSHAFISVMTRQPQQSYLSLLQNLRNELAGKYSQKPQLSASHPIDVNLQFIM", "notes": "Candida glabrata metacaspase CgMCA-I, C-terminal p10 fragment left after cleavage after R307; Residues seen in the maps begin after Ile309; Limits are worked out from the cleavage site found by mass spectrometry (R307) and the stated length of 392 residues; also called p10 subunit; source: E. coli T7 express, purified as CgMCA-I; cleaved by its own maturation before or during crystallisation"}},
  "target": "T1, p20 domain of mature CgMCA-I (fragment between the cleavages after R54 and K263) (Candida glabrata, UniProt Q6FPX9 55-263)",
  "T1 construct": "Candida glabrata metacaspase CgMCA-I, p20 fragment left after cleavage after R54 and after K263; Residues seen in the maps: from after Gly68 (7QP1) or after Ser72 (7QP0) up to before Asn260; Limits are worked out from the cleavage sites found by mass spectrometry (R54, K263); The N-terminal His tag leaves with residues 1-54; source: E. coli T7 express, purified as CgMCA-I; cleaved by its own …",
  "T1 sequence (looked up)": "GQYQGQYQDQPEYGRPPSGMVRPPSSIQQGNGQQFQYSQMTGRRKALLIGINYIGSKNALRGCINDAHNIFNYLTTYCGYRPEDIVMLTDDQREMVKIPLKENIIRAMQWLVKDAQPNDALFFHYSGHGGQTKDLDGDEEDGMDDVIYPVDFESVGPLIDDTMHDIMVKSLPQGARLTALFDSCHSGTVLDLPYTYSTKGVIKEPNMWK",
  "assay": "crystal structure; fully matured CgMCA-I with Ca2+ (7QP1, 3.0 A) and with Mg2+ (7QP0, 1.6 A); N-terminal part and p20-p10 linker cleaved off",
  "conditions": "both partners purified",
  "data": [
    {"binder": "B1", "values": [
      {"measurement": "binding result", "result": "binds"}
    ]}
  ]
}
